Measured values reported in patent US20230312722A1 (NONA BIOSCIENCES SUZHOU, published 2023).

Assays:
Test in all cases: ELISA, plate coated with 1 µg/mL B7 family protein
[1] = target: T1, Human B7-1/CD80 Protein, Fc Tag (Acro B71-H5259) (human, UniProt P33681 35-242)
T1 construct: Bought protein
T1 sequence (looked up): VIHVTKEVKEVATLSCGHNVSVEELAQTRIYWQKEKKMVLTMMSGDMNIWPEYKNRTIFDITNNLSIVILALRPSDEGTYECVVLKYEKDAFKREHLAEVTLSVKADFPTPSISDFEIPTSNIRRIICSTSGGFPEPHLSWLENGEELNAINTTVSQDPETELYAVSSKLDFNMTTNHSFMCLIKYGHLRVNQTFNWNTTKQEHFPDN
Procedure: (§1) The proteins of the B7 family (see Table 9-1 for details) were each diluted to 1 μg/mL with PBS, added to a 96-well plate (Corning, #9018) at 100 μL per well, and incubated overnight at 4° C. After the liquid was discarded, the plate was washed 3 times with PBST buffer (pH 7.4, containing 0.05% tween-20), and 250 μL of 2% BSA blocking buffer was added. The plate was incubated at 37° C. for 1 hour. The blocking buffer was discarded, and the plate was washed 3 times with PBST buffer (pH 7.4, containing 0.05% Tween-20). The test antigen-binding protein was diluted to 2 concentrations: 10 nM and 1 nM, and added at 100 μL per well. The plate was incubated at 37° C. for 1 hour. An isotype antibody was taken as a control. After the plate was washed 3 times with PBST buffer (pH 7.4, containing 0.05% Tween-20), the plate was added with a 5000-fold diluted goat anti-human F(ab′)₂ HRP secondary antibody (Jackson ImmunoResearch, 109-035-097), and incubated at 37° C. away from light for 1 hour. After the plate was washed 3 times with PBST buffer (pH 7.4, containing 0.05% Tween-20), TMB (Biopanda, #TMB-S-003) was added at 100 μL/well. The plate was left away from light at room temperature for about 30 minutes. The reactions were terminated by adding 50 μL of stop buffer (BBI life sciences, #E661006-0200) to each well, and the absorbance values at 450 nm (OD450) was measured using a microplate reader (PerkinElemer, #Enspire).

[2] = target: T2, Human B7-2/CD86 Protein, Fc Tag (Acro CD6-H5257) (human, UniProt P42081 26-247)
T2 construct: Bought protein
T2 sequence (looked up): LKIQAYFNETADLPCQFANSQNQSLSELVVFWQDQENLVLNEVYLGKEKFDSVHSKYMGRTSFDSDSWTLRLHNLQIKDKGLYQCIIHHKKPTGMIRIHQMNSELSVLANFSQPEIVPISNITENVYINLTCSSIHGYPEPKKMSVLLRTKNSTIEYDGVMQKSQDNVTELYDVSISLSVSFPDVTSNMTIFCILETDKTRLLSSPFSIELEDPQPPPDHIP
Procedure: as §1

[3] = target: T3, Human B7-DC/PD-L2/CD273 Protein, Recombinant (Fc Tag) (Sino Biological H10292-H02H) (human, UniProt Q9BQ51 20-219)
T3 construct: Bought protein
T3 sequence (looked up): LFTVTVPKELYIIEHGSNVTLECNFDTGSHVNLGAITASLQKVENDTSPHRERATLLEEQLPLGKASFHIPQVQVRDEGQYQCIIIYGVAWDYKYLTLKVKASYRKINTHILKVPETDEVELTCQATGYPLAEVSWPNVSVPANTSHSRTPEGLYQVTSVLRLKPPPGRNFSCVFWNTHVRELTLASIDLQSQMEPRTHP
Procedure: as §1

[4] = target: T4, Human PD-L1/B7-H1 Protein, His Tag (Acro PD1-H5229) (human, UniProt Q9NZQ7 19-238)
T4 construct: Bought protein
Procedure: as §1

[5] = target: T5, CD275/ICOS ligand Protein, Human, Recombinant (Fc Tag) (Sino Biological 11559-H02H) (human, UniProt O75144 19-258)
T5 construct: Bought protein; also called B7H2
T5 sequence (looked up): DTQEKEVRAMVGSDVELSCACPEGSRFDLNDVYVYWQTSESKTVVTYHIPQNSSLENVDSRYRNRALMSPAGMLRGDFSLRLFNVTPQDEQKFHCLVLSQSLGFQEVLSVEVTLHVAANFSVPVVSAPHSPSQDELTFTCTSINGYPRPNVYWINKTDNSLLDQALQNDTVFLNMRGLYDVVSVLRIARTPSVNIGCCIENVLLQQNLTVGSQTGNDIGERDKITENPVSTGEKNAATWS
Procedure: as §1

[6] = target: T6, B7-H3/CD276 Protein, Human, Recombinant (ECD, Fc Tag) (Sino Biological 11188-H02H) (human, UniProt Q5ZPR3 29-466)
T6 construct: extracellular domain; Bought protein
T6 sequence (looked up): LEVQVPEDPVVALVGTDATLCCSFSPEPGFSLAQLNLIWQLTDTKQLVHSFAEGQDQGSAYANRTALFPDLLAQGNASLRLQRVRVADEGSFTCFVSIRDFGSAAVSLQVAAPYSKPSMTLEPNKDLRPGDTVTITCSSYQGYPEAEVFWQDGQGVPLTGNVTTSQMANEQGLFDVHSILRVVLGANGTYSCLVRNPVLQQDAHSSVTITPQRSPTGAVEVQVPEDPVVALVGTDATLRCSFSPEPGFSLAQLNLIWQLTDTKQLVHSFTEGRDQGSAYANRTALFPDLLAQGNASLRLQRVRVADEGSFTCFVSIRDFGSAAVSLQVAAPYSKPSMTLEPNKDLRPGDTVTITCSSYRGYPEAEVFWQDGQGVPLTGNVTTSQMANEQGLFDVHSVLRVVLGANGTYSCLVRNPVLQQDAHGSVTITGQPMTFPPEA
Procedure: as §1

[7] = target: T7, Recombinant human VISTA/B7H5/PD-1H Fc Chimera (R&D 7126-B7-050) (human, UniProt Q9H7M9 33-194)
T7 construct: Bought protein
T7 sequence (looked up): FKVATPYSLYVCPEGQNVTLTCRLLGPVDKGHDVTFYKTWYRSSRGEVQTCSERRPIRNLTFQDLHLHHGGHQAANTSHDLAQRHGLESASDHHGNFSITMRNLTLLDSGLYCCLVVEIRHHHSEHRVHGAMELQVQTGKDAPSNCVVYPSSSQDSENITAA
Procedure: as §1

[8] = target: T8, B7-H6/NCR3LG1 Protein, Human, Recombinant (Fc Tag) (Sino Biological 16140-H02H) (human, UniProt Q68D85 25-262)
T8 construct: Bought protein
T8 sequence (looked up): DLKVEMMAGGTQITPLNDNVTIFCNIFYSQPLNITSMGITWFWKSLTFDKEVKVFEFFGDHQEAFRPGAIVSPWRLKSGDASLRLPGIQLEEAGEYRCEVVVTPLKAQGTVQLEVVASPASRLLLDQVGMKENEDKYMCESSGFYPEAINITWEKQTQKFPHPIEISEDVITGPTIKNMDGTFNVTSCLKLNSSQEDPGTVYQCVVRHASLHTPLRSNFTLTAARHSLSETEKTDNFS
Procedure: as §1

[9] = target: T9, Recombinant human B7H7/HHLA2 Fc Chimera (R&D 8084-B7-050) (human, UniProt Q9UM44 23-344)
T9 construct: Bought protein
T9 sequence (looked up): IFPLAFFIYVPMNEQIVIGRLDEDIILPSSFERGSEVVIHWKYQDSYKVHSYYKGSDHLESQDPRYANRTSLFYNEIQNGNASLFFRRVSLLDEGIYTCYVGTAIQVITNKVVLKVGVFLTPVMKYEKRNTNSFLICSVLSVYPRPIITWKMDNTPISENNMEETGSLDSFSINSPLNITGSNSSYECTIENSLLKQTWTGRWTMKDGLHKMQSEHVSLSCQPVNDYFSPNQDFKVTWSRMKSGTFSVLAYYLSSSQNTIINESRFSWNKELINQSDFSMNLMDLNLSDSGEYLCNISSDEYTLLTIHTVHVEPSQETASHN
Procedure: as §1

Measured: binding result

T4 sequence (Q9NZQ7 19-238 limits assumed): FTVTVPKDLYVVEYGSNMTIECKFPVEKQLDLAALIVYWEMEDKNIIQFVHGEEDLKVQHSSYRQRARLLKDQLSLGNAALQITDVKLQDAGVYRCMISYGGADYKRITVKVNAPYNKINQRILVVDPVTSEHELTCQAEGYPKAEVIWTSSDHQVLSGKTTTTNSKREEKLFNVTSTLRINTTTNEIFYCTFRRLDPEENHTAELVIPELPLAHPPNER

B1: PR002418 (antibody, human IgG1, kappa, V domains shown)
VH: QVQLVESGGGVVQPGRSLRLSCAASGFTFRSFGMHWVRQAPGKGLEWVAVISYDASNEYYADSVKGRFIISRDNSKDTLYLQMNSLRAGDTAVYYCAKGGGLRWYFAYWGQGTLVTVSS
VL: EIVMTQSPATLSVSPGERATLSCRASQSISSNLGWYQQKPGQAPRLLIYGASTRATGIPARFSGSGSGTEFTLTISSLQSEDFAVYYCQQYQSWPPLTFGGGTKVEIKR
notes: PTM variant/DE mutant of PR001476 (H: G55A; L: N92Q; Fc S239D, I332E), human IgG1
no binding (tested: 10 nM): [1] | [2] | [3] | [4] | [5] | [6] | [7] | [8] | [9]
